In patent US20220098307A1 (WUHAN YZY BIOPHARMA, published 2022):
Residue numbers refer to the chain shown, from its start. Numbers in names are those of the source.

B1: M1IC-FES (bispecific antibody)
chain: not shown
heavy: EVKLDETGGGLVQPGRPMKLSCVASGFTFSDYWMNWVRQSPEKGLEWVAQIRNKPYNYETYYSDSVKGRFTISRDDSKSSVYLQMNNLRVEDMGIYYCTGSYYGMDYWGQGTSVTVSSASTKGPSVFPLAPSSKSTSGGTAALGCLVKDYFPEPVTVSWNSGALTSGVHTFPAVLQSSGLYSLSSVVTVPSSSLGTQTYICNVNHKPSNTKVDKKVEPKSCDKTHTCPPCPAPEFEGGPSVFLFPPKPKDTLMISRTPEVTCVVVDVSHEDPEVKFNWYVDGVEVHNAKTKPREEQYNSTYRVVSVLTVLHQDWLNGKEYKCKVSNKALPASIEKTISKAKGQPREPQVYTLPPCRDELTKNQVSLWCLVKGFYPSDIAVEWESNGQPENNYKTTPPVLDSDGSFFLYSKLTVDKSRWQQGNVFSCSVMHEALHNHYTQKSLSLSPGK
light: DVVMTQTPLSLPVSLGDQASISCRSSQSLVHSNGNTYLRWYLQKPGQSPKVLIYKVSNRFSGVPDRFSGSGSGTDFTLKISRVEAEDLGVYFCSQSTHVPWTFGGGTKLEIKRTVAAPSVFIFPPSDEQLKSGTASVVCLLNNFYPREAKVQWKVDNALQSGNSQESVTEQDSKDSTYSLSSTLTLSKADYEKHKVYACEVTHQGLSSPVTKSFNRGEC
notes: structure 1 isotype control; CH2 FES
B2: M1IC-NA (bispecific antibody)
chain: not shown
heavy: B1 heavy with F235L, E236L, N298A, S332P
light: B1 light
notes: structure 1 isotype control; CH2 N297A
B3: CD38-M1-FES (bispecific antibody, human IgG1, kappa)
chain: QVQLVESGGGVVQPGRSLRLSCAASGFTFSTYAMNWVRQAPGKGLEWVARIRSKYNNYATYYADSVKDRFTISRDDSKNTLYLQMNSLRAEDTAVYYCARHGNFGNSYVSWFAYWGQGTLVTVSSGGGGSGGGGSGGGGSQTVVTQEPSLTVSPGGTVTLTCRSSTGAVTTSNYANWVQQKPGQAPRGLIGGTNKRAPGVPARFSGSLLGGKAALTLSGVQPEDEAEYYCALWYSNLWVFGGGTKVEIKGGGGSDKTHTCPPCPAPEFEGGPSVFLFPPKPKDTLMISRTPEVTCVVVDVSHEDPEVKFNWYVDGVEVHNAKTKPREEQYNSTYRVVSVLTVLHQDWLNGKEYKCKVSNKALPASIEKTISKAKGQPREPQVCTLPPSRDELTKNQVSLSCAVKGFYPSDIAVEWESNGQPENNYKTTPPVLDSDGSFFLVSKLTVDKSRWQQGNVFSCSVMHEALHNHYTQKSLSLSPGK
heavy: EVQLLESGGGLVQPGGSLRLSCAVSGFTFNSFAMSWVRQAPGKGLEWVSAISGSGGGTYYADSVKGRFTISRDNSKNTLYLQMNSLRAEDTAVYFCAKDKILWFGEPVFDYWGQGTLVTVSSASTKGPSVFPLAPSSKSTSGGTAALGCLVKDYFPEPVTVSWNSGALTSGVHTFPAVLQSSGLYSLSSVVTVPSSSLGTQTYICNVNHKPSNTKVDKKVEPKSCDKTHTCPPCPAPEFEGGPSVFLFPPKPKDTLMISRTPEVTCVVVDVSHEDPEVKFNWYVDGVEVHNAKTKPREEQYNSTYRVVSVLTVLHQDWLNGKEYKCKVSNKALPASIEKTISKAKGQPREPQVYTLPPCRDELTKNQVSLWCLVKGFYPSDIAVEWESNGQPENNYKTTPPVLDSDGSFFLYSKLTVDKSRWQQGNVFSCSVMHEALHNHYTQKSLSLSPGK
light: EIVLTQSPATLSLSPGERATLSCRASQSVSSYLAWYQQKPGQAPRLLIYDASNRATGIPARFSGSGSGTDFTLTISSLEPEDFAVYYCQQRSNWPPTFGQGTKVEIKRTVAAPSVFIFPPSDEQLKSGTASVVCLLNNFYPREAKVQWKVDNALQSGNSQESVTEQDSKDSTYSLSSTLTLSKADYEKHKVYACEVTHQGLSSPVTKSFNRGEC
notes: structure 1; CD38 x CD3; CH2 FES
B4: CD38-M1-G2 (bispecific antibody, human IgG1, kappa)
chain: QVQLVESGGGVVQPGRSLRLSCAASGFTFSTYAMNWVRQAPGKGLEWVARIRSKYNNYATYYADSVKDRFTISRDDSKNTLYLQMNSLRAEDTAVYYCARHGNFGNSYVSWFAYWGQGTLVTVSSGGGGSGGGGSGGGGSQTVVTQEPSLTVSPGGTVTLTCRSSTGAVTTSNYANWVQQKPGQAPRGLIGGTNKRAPGVPARFSGSLLGGKAALTLSGVQPEDEAEYYCALWYSNLWVFGGGTKVEIKGRGRGSDKTHTCPPCPAPPVAGPSVFLFPPKPKDTLMISRTPEVTCVVVDVSHEDPEVQFNWYVDGVEVHNAKTKPREEQFNSTFRVVSVLTVVHQDWLNGKEYKCKVSNKGLPAPIEKTISKTKGQPREPQVCTLPPSRDELTKNQVSLSCAVKGFYPSDIAVEWESNGQPENNYKTTPPVLDSDGSFFLVSKLTVDKSRWQQGNVFSCSVMHEALHNHYTQKSLSLSPGK
heavy: EVQLLESGGGLVQPGGSLRLSCAVSGFTFNSFAMSWVRQAPGKGLEWVSAISGSGGGTYYADSVKGRFTISRDNSKNTLYLQMNSLRAEDTAVYFCAKDKILWFGEPVFDYWGQGTLVTVSSASTKGPSVFPLAPSSKSTSGGTAALGCLVKDYFPEPVTVSWNSGALTSGVHTFPAVLQSSGLYSLSSVVTVPSSSLGTQTYICNVNHKPSNTKVDKKVEPKSCDKTHTCPPCPAPPVAGPSVFLFPPKPKDTLMISRTPEVTCVVVDVSHEDPEVQFNWYVDGVEVHNAKTKPREEQFNSTFRVVSVLTVVHQDWLNGKEYKCKVSNKGLPAPIEKTISKTKGQPREPQVYTLPPCRDELTKNQVSLWCLVKGFYPSDIAVEWESNGQPENNYKTTPPVLDSDGSFFLYSKLTVDKSRWQQGNVFSCSVMHEALHNHYTQKSLSLSPGK
light: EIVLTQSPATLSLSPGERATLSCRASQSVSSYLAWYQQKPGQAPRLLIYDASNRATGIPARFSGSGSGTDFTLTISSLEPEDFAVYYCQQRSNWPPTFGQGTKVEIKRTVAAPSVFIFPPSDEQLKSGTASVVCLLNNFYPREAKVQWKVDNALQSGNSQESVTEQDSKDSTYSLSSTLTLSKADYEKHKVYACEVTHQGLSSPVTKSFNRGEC
notes: structure 1; CD38 x CD3; CH2 G2CH2
B5: CD38-M1-SG2 (bispecific antibody, human IgG1, kappa)
chain: B4 chain with C264S
heavy: B4 heavy with C234S
light: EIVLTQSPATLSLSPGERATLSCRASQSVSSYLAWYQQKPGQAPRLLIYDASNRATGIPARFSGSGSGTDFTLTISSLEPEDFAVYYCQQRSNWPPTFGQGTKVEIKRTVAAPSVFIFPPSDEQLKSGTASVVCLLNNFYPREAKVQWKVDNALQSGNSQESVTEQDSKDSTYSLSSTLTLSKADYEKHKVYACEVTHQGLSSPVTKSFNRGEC
notes: structure 1; CD38 x CD3; CH2 SG2CH2
B6: CD38-M1-FES-1 (bispecific antibody)
chain: not shown
heavy: B3 heavy
light: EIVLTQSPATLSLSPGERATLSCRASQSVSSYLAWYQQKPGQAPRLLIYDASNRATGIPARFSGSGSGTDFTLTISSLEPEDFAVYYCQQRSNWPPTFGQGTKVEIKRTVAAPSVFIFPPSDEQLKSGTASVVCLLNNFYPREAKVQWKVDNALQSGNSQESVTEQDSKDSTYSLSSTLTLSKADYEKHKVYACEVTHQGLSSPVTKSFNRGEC
notes: structure 1; CD38 x CD3 (I2C); CH2 FES
B7: CD38-M1-G2-1 (bispecific antibody)
chain: not shown
heavy: B4 heavy
light: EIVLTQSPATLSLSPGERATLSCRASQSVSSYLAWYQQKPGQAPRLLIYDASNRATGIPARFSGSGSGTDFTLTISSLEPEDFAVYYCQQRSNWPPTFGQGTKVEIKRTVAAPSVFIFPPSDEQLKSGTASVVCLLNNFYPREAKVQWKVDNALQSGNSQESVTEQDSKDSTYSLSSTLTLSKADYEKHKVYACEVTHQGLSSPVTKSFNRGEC
notes: structure 1; CD38 x CD3 (I2C); CH2 G2CH2
B8: CD38-M1-AG2 (bispecific antibody)
chain: not shown
heavy: B4 heavy with C234A
light: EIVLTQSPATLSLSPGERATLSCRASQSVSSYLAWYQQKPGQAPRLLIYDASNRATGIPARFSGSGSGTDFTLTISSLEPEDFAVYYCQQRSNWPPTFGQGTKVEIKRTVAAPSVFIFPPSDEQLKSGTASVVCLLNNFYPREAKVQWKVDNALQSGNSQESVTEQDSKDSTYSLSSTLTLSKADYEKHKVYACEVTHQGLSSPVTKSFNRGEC
notes: structure 1; CD38 x CD3 (I2C); CH2 AG2CH2
B9: CD38-M1-DG2 (bispecific antibody)
chain: not shown
heavy: B4 heavy with D269A
light: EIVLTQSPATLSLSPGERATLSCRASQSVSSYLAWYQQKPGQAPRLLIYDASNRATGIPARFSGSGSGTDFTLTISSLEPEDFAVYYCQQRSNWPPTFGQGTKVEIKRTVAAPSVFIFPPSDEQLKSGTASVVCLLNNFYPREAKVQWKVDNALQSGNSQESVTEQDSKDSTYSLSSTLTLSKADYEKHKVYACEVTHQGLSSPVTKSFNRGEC
notes: structure 1; CD38 x CD3 (I2C); CH2 DG2CH2
B10: CD38-M1-DG2D (bispecific antibody)
chain: not shown
heavy: B4 heavy with D269A, D274A
light: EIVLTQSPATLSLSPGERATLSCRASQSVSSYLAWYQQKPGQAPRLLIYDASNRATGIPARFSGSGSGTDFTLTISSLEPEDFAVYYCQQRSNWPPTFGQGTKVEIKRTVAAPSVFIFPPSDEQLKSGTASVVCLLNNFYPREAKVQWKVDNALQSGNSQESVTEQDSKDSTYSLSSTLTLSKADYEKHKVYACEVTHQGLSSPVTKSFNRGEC
notes: structure 1; CD38 x CD3 (I2C); CH2 DG2DCH2
B11: CD38-M1-G2D (bispecific antibody)
chain: not shown
heavy: B4 heavy with D274A
light: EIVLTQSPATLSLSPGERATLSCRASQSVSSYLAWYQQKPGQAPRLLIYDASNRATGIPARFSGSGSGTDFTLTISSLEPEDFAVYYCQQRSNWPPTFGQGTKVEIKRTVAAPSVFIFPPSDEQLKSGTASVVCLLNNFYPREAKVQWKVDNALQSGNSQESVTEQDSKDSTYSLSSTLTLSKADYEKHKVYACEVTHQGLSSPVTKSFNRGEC
notes: structure 1; CD38 x CD3 (I2C); CH2 G2DCH2
B12: CD38-M1-GG2 (bispecific antibody)
chain: not shown
heavy: B4 heavy with C234G
light: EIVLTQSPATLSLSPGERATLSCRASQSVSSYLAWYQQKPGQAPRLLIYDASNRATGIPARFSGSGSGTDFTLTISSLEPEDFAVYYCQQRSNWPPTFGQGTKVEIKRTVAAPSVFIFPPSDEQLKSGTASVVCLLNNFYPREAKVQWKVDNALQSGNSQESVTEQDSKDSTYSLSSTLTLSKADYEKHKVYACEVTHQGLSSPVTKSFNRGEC
notes: structure 1; CD38 x CD3 (I2C); CH2 GG2CH2
B13: CD38-M1-PG2 (bispecific antibody)
chain: not shown
heavy: B4 heavy with C234P
light: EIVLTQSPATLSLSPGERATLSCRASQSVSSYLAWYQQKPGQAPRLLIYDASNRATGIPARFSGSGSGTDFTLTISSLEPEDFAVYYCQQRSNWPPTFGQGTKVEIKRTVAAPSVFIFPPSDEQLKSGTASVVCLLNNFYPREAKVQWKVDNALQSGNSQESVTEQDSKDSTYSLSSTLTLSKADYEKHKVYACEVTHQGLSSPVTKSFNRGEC
notes: structure 1; CD38 x CD3 (I2C); CH2 PG2CH2
B14: CD38-M1-SG2-3 (bispecific antibody)
chain: not shown
heavy: B4 heavy with C234S
light: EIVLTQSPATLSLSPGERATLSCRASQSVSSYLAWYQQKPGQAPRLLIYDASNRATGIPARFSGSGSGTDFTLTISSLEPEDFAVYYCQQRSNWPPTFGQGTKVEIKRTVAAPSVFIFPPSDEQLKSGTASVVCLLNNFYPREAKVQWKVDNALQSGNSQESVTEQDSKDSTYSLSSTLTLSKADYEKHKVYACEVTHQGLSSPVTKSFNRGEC
notes: structure 1; CD38 x CD3 (I2C); CH2 SG2CH2

The binders below were run against T1, Monkey CD3 (monkey) (assay: flow cytometry, monkey T cells).
T1 construct: whole, on cells; also called CD3 of monkey CD3 positive T cells

Binder	EC50
B1	11.4 nM
B2	9.63 nM
B3	291 nM
B4	142 nM
B5	159 nM
B6	9.18 nM
B7	12.6 nM
B8	10.2 nM
B9	11 nM
B10	7.05 nM
B11	10.1 nM
B12	10.4 nM
B13	11.5 nM
B14	7.59 nM
